Eight molecules from patent US20250171562A1 (ALK ABELL, published 2025) can be followed below.

B1: CIgG4B1A2(G4S)1 (Fc fusion)
chain 1: GPPCPPCPAPEFLGGPSVFLFPPKPKDTLMISRTPEVTCVVVDVSQEDPEVQFNWYVDGVEVHNAKTKPREEQFNSTYRVVSVLTVLHQDWLNGKEYKCKVSNKGLPSSIEKTISKAKGQPREPQVYTLPPCQEEMTKNQVSLWCLVKGFYPSDIAVEWESNGQPENNYKTTPPVLDSDGSFFLYSRLTVDKSRWQEGNVFSCSVMHEALHNHYTQKSLSLSLGKGGGGSQVQLQESGGGLVQTGGSLRLSCAVHGRTFSNTGMGWFRQAPGNERQFVAIISPSGTSTYYADSVKGRFTISRDPAKNTVYLQMNSLKMDDTAVYYCAASYGSNWSTLRHQRRNEYDAWGQGTQVAVS
chain 2: GPPCPPCPAPEFLGGPSVFLFPPKPKDTLMISRTPEVTCVVVDVSQEDPEVQFNWYVDGVEVHNAKTKPREEQFNSTYRVVSVLTVLHQDWLNGKEYKCKVSNKGLPSSIEKTISKAKGQPREPQVCTLPPSQEEMTKNQVSLSCAVKGFYPSDIAVEWESNGQPENNYKTTPPVLDSDGSFFLVSRLTVDKSRWQEGNVFSCSVMHEALHNHYTQKSLSLSLGKGGGGSEVQLLESGGGLVQPGGSLRLSCAASGFRFGNYDMAWVRQAPGKRYEWVSSIDTGGDITHYADSVKGRFTISRDNAKNTLYLQMNSLRPEDTAEYWCATDEEYALGPNEFDYYGQGTLVTVS
B2: CIgG4B1A2(RS) (Fc fusion)
chain 1: GPPCPPCPAPEFLGGPSVFLFPPKPKDTLMISRTPEVTCVVVDVSQEDPEVQFNWYVDGVEVHNAKTKPREEQFNSTYRVVSVLTVLHQDWLNGKEYKCKVSNKGLPSSIEKTISKAKGQPREPQVYTLPPCQEEMTKNQVSLWCLVKGFYPSDIAVEWESNGQPENNYKTTPPVLDSDGSFFLYSRLTVDKSRWQEGNVFSCSVMHEALHNHYTQKSLSLSLGKRSQVQLQESGGGLVQTGGSLRLSCAVHGRTFSNTGMGWFRQAPGNERQFVAIISPSGTSTYYADSVKGRFTISRDPAKNTVYLQMNSLKMDDTAVYYCAASYGSNWSTLRHQRRNEYDAWGQGTQVAVS
chain 2: GPPCPPCPAPEFLGGPSVFLFPPKPKDTLMISRTPEVTCVVVDVSQEDPEVQFNWYVDGVEVHNAKTKPREEQFNSTYRVVSVLTVLHQDWLNGKEYKCKVSNKGLPSSIEKTISKAKGQPREPQVCTLPPSQEEMTKNQVSLSCAVKGFYPSDIAVEWESNGQPENNYKTTPPVLDSDGSFFLVSRLTVDKSRWQEGNVFSCSVMHEALHNHYTQKSLSLSLGKRSEVQLLESGGGLVQPGGSLRLSCAASGFRFGNYDMAWVRQAPGKRYEWVSSIDTGGDITHYADSVKGRFTISRDNAKNTLYLQMNSLRPEDTAEYWCATDEEYALGPNEFDYYGQGTLVTVS
B3: NIgG4B2A1(G4S)1 (Fc fusion)
chain 1: QVQLVESGGGLVQAGGSLRLSCAVFGSTFSNNVADWYRQAPGKQRELVARISASGATREYGDSVKGRFTISRDDAKNTMYLQMNNLKPEDTAVYRCHKIEWEDLSRKDYWGQGTQVTVSGGGGSGPPCPPCPAPEFLGGPSVFLFPPKPKDTLMISRTPEVTCVVVDVSQEDPEVQFNWYVDGVEVHNAKTKPREEQFNSTYRVVSVLTVLHQDWLNGKEYKCKVSNKGLPSSIEKTISKAKGQPREPQVYTLPPCQEEMTKNQVSLWCLVKGFYPSDIAVEWESNGQPENNYKTTPPVLDSDGSFFLYSRLTVDKSRWQEGNVFSCSVMHEALHNHYTQKSLSLSLGK
chain 2: EVQLLESGGGLVQPGGSLRLSCAASGFTFGNYDMAWVRQAPGKRPEWVSSIDTGGDITHYADSVKGRFTISRDNAKNTLYLQMNSLRPEDTAVYWCATDEEYALGPNEFDYYGQGTLVTVSSGGGGSGPPCPPCPAPEFLGGPSVFLFPPKPKDTLMISRTPEVTCVVVDVSQEDPEVQFNWYVDGVEVHNAKTKPREEQFNSTYRVVSVLTVLHQDWLNGKEYKCKVSNKGLPSSIEKTISKAKGQPREPQVCTLPPSQEEMTKNQVSLSCAVKGFYPSDIAVEWESNGQPENNYKTTPPVLDSDGSFFLVSRLTVDKSRWQEGNVFSCSVMHEALHNHYTQKSLSLSLGK
B4: CIgG4B1A2(G4S)2 (Fc fusion)
chain 1: GPPCPPCPAPEFLGGPSVFLFPPKPKDTLMISRTPEVTCVVVDVSQEDPEVQFNWYVDGVEVHNAKTKPREEQFNSTYRVVSVLTVLHQDWLNGKEYKCKVSNKGLPSSIEKTISKAKGQPREPQVYTLPPCQEEMTKNQVSLWCLVKGFYPSDIAVEWESNGQPENNYKTTPPVLDSDGSFFLYSRLTVDKSRWQEGNVFSCSVMHEALHNHYTQKSLSLSLGKGGGGSGGGGSQVQLQESGGGLVQTGGSLRLSCAVHGRTFSNTGMGWFRQAPGNERQFVAIISPSGTSTYYADSVKGRFTISRDPAKNTVYLQMNSLKMDDTAVYYCAASYGSNWSTLRHQRRNEYDAWGQGTQVAVS
chain 2: GPPCPPCPAPEFLGGPSVFLFPPKPKDTLMISRTPEVTCVVVDVSQEDPEVQFNWYVDGVEVHNAKTKPREEQFNSTYRVVSVLTVLHQDWLNGKEYKCKVSNKGLPSSIEKTISKAKGQPREPQVCTLPPSQEEMTKNQVSLSCAVKGFYPSDIAVEWESNGQPENNYKTTPPVLDSDGSFFLVSRLTVDKSRWQEGNVFSCSVMHEALHNHYTQKSLSLSLGKGGGGSGGGGSEVQLLESGGGLVQPGGSLRLSCAASGFRFGNYDMAWVRQAPGKRYEWVSSIDTGGDITHYADSVKGRFTISRDNAKNTLYLQMNSLRPEDTAEYWCATDEEYALGPNEFDYYGQGTLVTVS
B5: NIgG4B1A2(G4S)2 (Fc fusion)
chain 1: QVQLQESGGGLVQTGGSLRLSCAVHGRTFSNTGMGWFRQAPGNERQFVAIISPSGTSTYYADSVKGRFTISRDPAKNTVYLQMNSLKMDDTAVYYCAASYGSNWSTLRHQRRNEYDAWGQGTQVAVSGGGGSGGGGSGPPCPPCPAPEFLGGPSVFLFPPKPKDTLMISRTPEVTCVVVDVSQEDPEVQFNWYVDGVEVHNAKTKPREEQFNSTYRVVSVLTVLHQDWLNGKEYKCKVSNKGLPSSIEKTISKAKGQPREPQVYTLPPCQEEMTKNQVSLWCLVKGFYPSDIAVEWESNGQPENNYKTTPPVLDSDGSFFLYSRLTVDKSRWQEGNVFSCSVMHEALHNHYTQKSLSLSLGK
chain 2: EVQLLESGGGLVQPGGSLRLSCAASGFRFGNYDMAWVRQAPGKRYEWVSSIDTGGDITHYADSVKGRFTISRDNAKNTLYLQMNSLRPEDTAEYWCATDEEYALGPNEFDYYGQGTLVTVSGGGGSGGGGSGPPCPPCPAPEFLGGPSVFLFPPKPKDTLMISRTPEVTCVVVDVSQEDPEVQFNWYVDGVEVHNAKTKPREEQFNSTYRVVSVLTVLHQDWLNGKEYKCKVSNKGLPSSIEKTISKAKGQPREPQVCTLPPSQEEMTKNQVSLSCAVKGFYPSDIAVEWESNGQPENNYKTTPPVLDSDGSFFLVSRLTVDKSRWQEGNVFSCSVMHEALHNHYTQKSLSLSLGK
B6: CIgG4B1A2(G4S)3 (Fc fusion)
chain 1: GPPCPPCPAPEFLGGPSVFLFPPKPKDTLMISRTPEVTCVVVDVSQEDPEVQFNWYVDGVEVHNAKTKPREEQFNSTYRVVSVLTVLHQDWLNGKEYKCKVSNKGLPSSIEKTISKAKGQPREPQVYTLPPCQEEMTKNQVSLWCLVKGFYPSDIAVEWESNGQPENNYKTTPPVLDSDGSFFLYSRLTVDKSRWQEGNVFSCSVMHEALHNHYTQKSLSLSLGKGGGGSGGGGSGGGGSQVQLQESGGGLVQTGGSLRLSCAVHGRTFSNTGMGWFRQAPGNERQFVAIISPSGTSTYYADSVKGRFTISRDPAKNTVYLQMNSLKMDDTAVYYCAASYGSNWSTLRHQRRNEYDAWGQGTQVAVS
chain 2: GPPCPPCPAPEFLGGPSVFLFPPKPKDTLMISRTPEVTCVVVDVSQEDPEVQFNWYVDGVEVHNAKTKPREEQFNSTYRVVSVLTVLHQDWLNGKEYKCKVSNKGLPSSIEKTISKAKGQPREPQVCTLPPSQEEMTKNQVSLSCAVKGFYPSDIAVEWESNGQPENNYKTTPPVLDSDGSFFLVSRLTVDKSRWQEGNVFSCSVMHEALHNHYTQKSLSLSLGKGGGGSGGGGSGGGGSEVQLLESGGGLVQPGGSLRLSCAASGFRFGNYDMAWVRQAPGKRYEWVSSIDTGGDITHYADSVKGRFTISRDNAKNTLYLQMNSLRPEDTAEYWCATDEEYALGPNEFDYYGQGTLVTVS
B7: NIgG4B1A2(G4S)3 (Fc fusion)
chain 1: QVQLQESGGGLVQTGGSLRLSCAVHGRTFSNTGMGWFRQAPGNERQFVAIISPSGTSTYYADSVKGRFTISRDPAKNTVYLQMNSLKMDDTAVYYCAASYGSNWSTLRHQRRNEYDAWGQGTQVAVSGGGGSGGGGSGGGGSGPPCPPCPAPEFLGGPSVFLFPPKPKDTLMISRTPEVTCVVVDVSQEDPEVQFNWYVDGVEVHNAKTKPREEQFNSTYRVVSVLTVLHQDWLNGKEYKCKVSNKGLPSSIEKTISKAKGQPREPQVYTLPPCQEEMTKNQVSLWCLVKGFYPSDIAVEWESNGQPENNYKTTPPVLDSDGSFFLYSRLTVDKSRWQEGNVFSCSVMHEALHNHYTQKSLSLSLGK
chain 2: EVQLLESGGGLVQPGGSLRLSCAASGFRFGNYDMAWVRQAPGKRYEWVSSIDTGGDITHYADSVKGRFTISRDNAKNTLYLQMNSLRPEDTAEYWCATDEEYALGPNEFDYYGQGTLVTVSGGGGSGGGGSGGGGSGPPCPPCPAPEFLGGPSVFLFPPKPKDTLMISRTPEVTCVVVDVSQEDPEVQFNWYVDGVEVHNAKTKPREEQFNSTYRVVSVLTVLHQDWLNGKEYKCKVSNKGLPSSIEKTISKAKGQPREPQVCTLPPSQEEMTKNQVSLSCAVKGFYPSDIAVEWESNGQPENNYKTTPPVLDSDGSFFLVSRLTVDKSRWQEGNVFSCSVMHEALHNHYTQKSLSLSLGK
B8: NIgG4B2A1(RS) (Fc fusion)
chain 1: QVQLVESGGGLVQAGGSLRLSCAVFGSTFSNNVADWYRQAPGKQRELVARISASGATREYGDSVKGRFTISRDDAKNTMYLQMNNLKPEDTAVYRCHKIEWEDLSRKDYWGQGTQVTVSRSGPPCPPCPAPEFLGGPSVFLFPPKPKDTLMISRTPEVTCVVVDVSQEDPEVQFNWYVDGVEVHNAKTKPREEQFNSTYRVVSVLTVLHQDWLNGKEYKCKVSNKGLPSSIEKTISKAKGQPREPQVYTLPPCQEEMTKNQVSLWCLVKGFYPSDIAVEWESNGQPENNYKTTPPVLDSDGSFFLYSRLTVDKSRWQEGNVFSCSVMHEALHNHYTQKSLSLSLGK
chain 2: EVQLLESGGGLVQPGGSLRLSCAASGFTFGNYDMAWVRQAPGKRPEWVSSIDTGGDITHYADSVKGRFTISRDNAKNTLYLQMNSLRPEDTAVYWCATDEEYALGPNEFDYYGQGTLVTVSSRSGPPCPPCPAPEFLGGPSVFLFPPKPKDTLMISRTPEVTCVVVDVSQEDPEVQFNWYVDGVEVHNAKTKPREEQFNSTYRVVSVLTVLHQDWLNGKEYKCKVSNKGLPSSIEKTISKAKGQPREPQVCTLPPSQEEMTKNQVSLSCAVKGFYPSDIAVEWESNGQPENNYKTTPPVLDSDGSFFLVSRLTVDKSRWQEGNVFSCSVMHEALHNHYTQKSLSLSLGK

Where only a bound is given, the exact number is not on record here.

T1 sequence (P01854 other isoform, or with tags, fused parts or gaps): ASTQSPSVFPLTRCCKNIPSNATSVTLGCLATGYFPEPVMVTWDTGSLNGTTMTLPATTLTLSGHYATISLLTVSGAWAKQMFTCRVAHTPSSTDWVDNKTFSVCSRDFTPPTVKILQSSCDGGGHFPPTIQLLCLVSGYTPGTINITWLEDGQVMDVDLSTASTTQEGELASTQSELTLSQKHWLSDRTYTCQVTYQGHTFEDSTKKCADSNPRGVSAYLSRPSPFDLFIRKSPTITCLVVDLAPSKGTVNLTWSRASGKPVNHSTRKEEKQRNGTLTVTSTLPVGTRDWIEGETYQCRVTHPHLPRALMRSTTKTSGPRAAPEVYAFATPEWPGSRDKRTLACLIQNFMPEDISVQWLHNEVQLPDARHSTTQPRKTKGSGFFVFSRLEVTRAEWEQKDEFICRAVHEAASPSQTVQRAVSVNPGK

This assay has as its target T1, recombinant human IgE (human, UniProt P01854-1 1-428).
T1 construct: made in-house (ALK); preloaded on immobilised FcεRIα in the displacement ELISA
Put plainly: IgE-FcεRIα displacement ELISA. Put shortly:
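sdAbs at pM–μM were incubated 1 h on preformed complexes of 13 ng/ml recombinant human IgE with avi-tag-biotinylated human FcεRIα captured on streptavidin.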
For the molecule B1, the concentration for a half-maximal effect (EC50) (usually the midpoint of the concentration-response curve) worked out at 3 nM and the Max effect is over 95%. With B2, the EC50 is 5 nM and the Max effect is over 95%.

B3: the Max effect was over 95%.

As to B4, the EC50 amounted to 2.7 nM and the Max effect was over 95%. As for B5, the Max effect was over 95%. B6: the EC50 was found to be 2.5 nM and the Max effect was over 95%.

As for B7, the Max effect is over 95%. Turning to B8, the Max effect is over 95%.
